Reference: the supplement of paper PMC5998384

Legend:
HeLa Kyoto [1] = experiment: solubility change mitosis vs G1/S (difference of NP-40 vs SDS log2 ratios) (log2 ratio difference); higher = more soluble in mitosis
HeLa Kyoto [2] = experiment: thermal stability score vs G1/S (z-score of summed log2 fold changes over temperatures); higher = more thermally stable than in G1/S
HeLa Kyoto [3] = experiment: melting temperature (median over replicates), in situ; higher = more thermally stable
HeLa Kyoto [4] = experiment: solubility in G1/S (NP-40 vs SDS abundance) (log2 ratio); higher = more soluble; conditions: cell cycle stage: G1/S
[5] = cell cycle stage: early G1 (4.5 h after nocodazole release)
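Throughout, for melting temperature (median over replicates), in situ: HeLa Kyoto cells synchronized by double thymidine or nocodazole block, proteins quantified by TMT10plex mass spectrometry, three independent biological replicates.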
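Throughout, for solubility change mitosis vs G1/S (difference of NP-40 vs SDS log2 ratios): synchronized HeLa Kyoto cells (double thymidine block for G1/S, nocodazole release for mitosis), protein amounts in NP-40 versus SDS lysates quantified by mass spectrometry, three biological replicates.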
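Throughout, for solubility in G1/S (NP-40 vs SDS abundance): HeLa Kyoto cells arrested at G1/S by double thymidine block, proteins quantified by TMT10plex mass spectrometry in mild NP-40 versus SDS extracts, three biological replicates.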
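Throughout, for thermal stability score vs G1/S (z-score of summed log2 fold changes over temperatures): synchronized HeLa Kyoto cells, proteins quantified by TMT10plex mass spectrometry, three biological replicates, mitosis taken 0.5 h after nocodazole release, G1/S directly after double thymidine block.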

Sequence | solubility change mitosis (log2) (HeLa Kyoto [1]) | thermal stability score (HeLa Kyoto [2]; [5]) | thermal stability score (HeLa Kyoto [2]; cell cycle stage: mitosis) | melting temperature (HeLa Kyoto [3]; cell cycle stage: G1/S) [°C] | melting temperature (HeLa Kyoto [3]; cell cycle stage: mitosis) [°C] | solubility in G1/S (log2) (HeLa Kyoto [4])
MATTAAPAGGARNGAGPEWGGFEENIQGGGSAVIDMENMDDTSGSSFEDMGELHQRLREEEVDADAADAAAAEEEDGEFLGMKGFKGQLSRQVADQMWQAGKRQASRAFSLYANIDILRPYFDVEPAQVRSRLLESMIPIKMVNFPQKIAGELYGPLMLVFTLVAILLHGMKTSDTIIREGTLMGTAIGTCFGYWLGVSSFIYFLAYLCNAQITMLQMLALLGYGLFGHCIVLFITYNIHLHALFYLFWLLVGGLSTLRMVAVLVSRTVGPTQRLLLCGTLAALHMLFLLYLHFAYHKVVEGILDTLEGPNIPPIQRVPRDIPAMLPAARLPTTVLNATAKAVAVTLQSH [YIPF3] | -0.0133 | -2.34 | -3.63 | 55.9 | 55.7 | -0.107
MATYLEFIQQNEERDGVRFSWNVWPSSRLEATRMVVPLACLLTPLKERPDLPPVQYEPVLCSRPTCKAVLNPLCQVDYRAKLWACNFCFQRNQFPPAYGGISEVNQPAELMPQFSTIEYVIQRGAQSPLIFLYVVDTCLEEDDLQALKESLQMSLSLLPPDALVGLITFGRMVQVHELSCEGISKSYVFRGTKDLTAKQIQDMLGLTKPAMPMQQARPAQPQEHPFASSRFLQPVHKIDMNLTDLLGELQRDPWPVTQGKRPLRSTGVALSIAVGLLEGTFPNTGARIMLFTGGPPTQGPGMVVGDELKIPIRSWHDIEKDNARFMKKATKHYEMLANRTAANGHCIDIYACALDQTGLLEMKCCANLTGGYMVMGDSFNTSLFKQTFQRIFTKDFNGDFRMAFGATLDVKTSRELKIAGAIGPCVSLNVKGPCVSENELGVGGTSQWKICGLDPTSTLGIYFEVVNQHNTPIPQGGRGAIQFVTHYQHSSTQRRIRVTTIARNWADVQSQLRHIEAAFDQEAAAVLMARLGVFRAESEEGPDVLRWLDRQLIRLCQKFGQYNKEDPTSFRLSDSFSLYPQFMFHLRRSPFLQVFNNSPDESSYYRHHFARQDLTQSLIMIQPILYSYSFHGPPEPVLLDSSSILADRILLMDTFFQIVIYLGETIAQWRKAGYQDMPEYENFKHLLQAPLDDAQEILQARFPMPRYINTEHGGSQARFLLSKVNPSQTHNNLYAWGQETGAPILTDDVSLQVFMDHLKKLAVSSAC [SEC23B] | -0.175 | 0.832 | 0.395 | 50.4 | 50.9 | 0.0443
MAVAPRLFGGLCFRFRDQNPEVAVEGRLPISHSCVGCRRERTAMATVAANPAAAAAAVAAAAAVTEDREPQHEELPGLDSQWRQIENGESGRERPLRAGESWFLVEKHWYKQWEAYVQGGDQDSSTFPGCINNATLFQDEINWRLKEGLVEGEDYVLLPAAAWHYLVSWYGLEHGQPPIERKVIELPNIQKVEVYPVELLLVRHNDLGKSHTVQFSHTDSIGLVLRTARERFLVEPQEDTRLWAKNSEGSLDRLYDTHITVLDAALETGQLIIMETRKKDGTWPSAQLHVMNNNMSEEDEDFKGQPGICGLTNLGNTCFMNSALQCLSNVPQLTEYFLNNCYLEELNFRNPLGMKGEIAEAYADLVKQAWSGHHRSIVPHVFKNKVGHFASQFLGYQQHDSQELLSFLLDGLHEDLNRVKKKEYVELCDAAGRPDQEVAQEAWQNHKRRNDSVIVDTFHGLFKSTLVCPDCGNVSVTFDPFCYLSVPLPISHKRVLEVFFIPMDPRRKPEQHRLVVPKKGKISDLCVALSKHTGISPERMMVADVFSHRFYKLYQLEEPLSSILDRDDIFVYEVSGRIEAIEGSREDIVVPVYLRERTPARDYNNSYYGLMLFGHPLLVSVPRDRFTWEGLYNVLMYRLSRYVTKPNSDDEDDGDEKEDDEEDKDDVPGPSTGGSLRDPEPEQAGPSSGVTNRCPFLLDNCLGTSQWPPRRRRKQLFTLQTVNSNGTSDRTTSPEEVHAQPYIAIDWEPEMKKRYYDEVEAEGYVKHDCVGYVMKKAPVRLQECIELFTTVETLEKENPWYCPSCKQHQLATKKLDLWMLPEILIIHLKRFSYTKFSREKLDTLVEFPIRDLDFSEFVIQPQNESNPELYKYDLIAVSNHYGGMRDGHYTTFACNKDSGQWHYFDDNSVSPVNENQIESKAAYVLFYQRQDVARRLLSPAGSSGAPASPACSSPPSSEFMDVN [USP11] | -0.0102 | 2.48 | 4.39 | 47.3 | 48.1 | -0.0353
MAVARAALGPLVTGLYDVQAFKFGDFVLKSGLSSPIYIDLRGIVSRPRLLSQVADILFQTAQNAGISFDTVCGVPYTALPLATVICSTNQIPMLIRRKETKDYGTKRLVEGTINPGETCLIIEDVVTSGSSVLETVEVLQKEGLKVTDAIVLLDREQGGKDKLQAHGIRLHSVCTLSKMLEILEQQKKVDAETVGRVKRFIQENVFVAANHNGSPLSIKEAPKELSFGARAELPRIHPVASKLLRLMQKKETNLCLSADVSLARELLQLADALGPSICMLKTHVDILNDFTLDVMKELITLAKCHEFLIFEDRKFADIGNTVKKQYEGGIFKIASWADLVNAHVVPGSGVVKGLQEVGLPLHRGCLLIAEMSSTGSLATGDYTRAAVRMAEEHSEFVVGFISGSRVSMKPEFLHLTPGVQLEAGGDNLGQQYNSPQEVIGKRGSDIIIVGRGIISAADRLEAAEMYRKAAWEAYLSRLGV [UMPS] | -0.08 | -0.259 | -1.37 | 53.9 | 53 | 0.169
MAVEDSTLQVVVRVRPPTPRELDSQRRPVVQVVDERVLVFNPEEPDGGFPGLKWGGTHDGPKKKGKDLTFVFDRVFGEAATQQDVFQHTTHSVLDSFLQGYNCSVFAYGATGAGKTHTMLGREGDPGIMYLTTVELYRRLEARQQEKHFEVLISYQEVYNEQIHDLLEPKGPLAIREDPDKGVVVQGLSFHQPASAEQLLEILTRGNRNRTQHPTDANATSSRSHAIFQIFVKQQDRVPGLTQAVQVAKMSLIDLAGSERASSTHAKGERLREGANINRSLLALINVLNALADAKGRKTHVPYRDSKLTRLLKDSLGGNCRTVMIAAISPSSLTYEDTYNTLKYADRAKEIRLSLKSNVTSLDCHISQYATICQQLQAEVAALRKKLQVYEGGGQPPPQDLPGSPKSGPPPEHQPCTPELPAGPRALQEESLGMEAQVERAMEGNSSDQEQSPEDEDEGPAEEVPTQMPEQNPTHALPESPRLTLQPKPVVGHFSARELDGDRSKQLALKVLCVAQRQYSLLQAANLLTPDMITEFETLQQLVQEEKIEPGAEALRTSGLARGAPLAQELCSESIPVPSPLCPEPPGYTGPVTRTMARRLSGPLHTLGIPPGPNCTPAQGSRWPMEKKRRRPSALEADSPMAPKRGTKRQRQSFLPCLRRGSLPDTQPSQGPSTPKGERASSPCHSPRVCPATVIKSRVPLGPSAMQNCSTPLALPTRDLNATFDLSEEPPSKPSFHECIGWDKIPQELSRLDQPFIPRAPVPLFTMKGPKPTSSLPGTSACKKKRVASSSVSHGRSRIARLPSSTLKRPAGPLVLPELPLSPLCPSNRRNGKDLIRVGRALSAGNGVTKVS [KIF18B] | 0.37 | 1.28 | 1.04 | – | 49.3 | -0.336
MAVELGVLLVRPRPGTGLGRVMRTLLLVLWLATRGSALYFHIGETEKKCFIEEIPDETMVIGNYRTQLYDKQREEYQPATPGLGMFVEVKDPEDKVILARQYGSEGRFTFTSHTPGEHQICLHSNSTKFSLFAGGMLRVHLDIQVGEHANDYAEIAAKDKLSELQLRVRQLVEQVEQIQKEQNYQRWREERFRQTSESTNQRVLWWSILQTLILVAIGVWQMRHLKSFFEAKKLV [TMED9] | 0.0692 | 1.59 | 1.3 | 55.7 | 56.7 | 0.375
